In the supplement of paper PMC12042874:
± gives the uncertainty stated by the source.

Assay: amyloid nucleation score (Sup35N fusion, yeast selection) (log enrichment); library NNK2; higher = more nucleation; inactive = no reads after selection
Procedure, shortened: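 The nucleation score, computed with DiMSum, is the log enrichment of output over input reads, centred on the mode score of non-aggregating sequences. Sequences with under 100 input reads were dropped. Reads were generated by Illumina sequencing of plasmid inserts from psi-negative yeast with Sup35N fused to peptides of 20 random codons, induced with 100 μM copper sulfate for 24 hours and grown 7 days at 30°C on medium lacking adenine and uracil.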

| Substance | amyloid nucleation score |
| --- | --- |
| TSRRL | 2.1 ± 0.13 |
| TTDCSNDLSAILVCLSHGAL | -0.19 ± 1 |
| TTLRCHLIESKWGYVRRLTW | 4.33 ± 0.088 |
| TTMIAVVRFTRD | 2.07 ± 0.29 |
| TTNSFINLVYMNMHK | 6.63 ± 0.075 |
| TTRAKHVHWYELHNVFMLQL | 7.483 ± 0.054 |
| TTSLSYFLIQKALLWKVEYH | -1.38 ± 0.38 |
| TTTCLMLLRVNFNTALLIRN | -1.41 ± 0.49 |
| TTYSRS | -1.26 ± 0.62 |
| TVCFDSLNHITSFIRGRFSL | inactive |
| TVFKYLTFLGSIVFSTVPLV | 0.088 ± 0.56 |
| TVFLTGRFCWVFPRSCYLSY | -0.758 ± 0.33 |
| TVFSK | -0.998 ± 0.76 |
| TVHRLRNVCLL | 2.51 ± 0.25 |
| TVLGRGLILWDVGGLSE | -0.906 ± 0.34 |
| TVMGPVILTCVGIAVTSASS | 3.86 ± 0.1 |
| TVMNVDWFKDYLLTNFVCSD | 0.063 ± 0.36 |
| TVNCSTCM | -0.562 ± 0.19 |
| TVSGDTSRRSRMNFSFYMQR | -0.266 ± 1.1 |
| TVSKDDMTALVSAIMASNRW | 1.06 ± 0.32 |
| TVSLYIDYPSVLGFPWSY | -0.952 ± 0.55 |
| TVSRTVCVASYCLSSEKTSG | -0.899 ± 0.31 |
| TVSVNLYNFVLQTSY | 4.55 ± 0.069 |
| TVVFYNNIIFGFDFSSAKWL | 6.21 ± 0.067 |
| TVWRARLGSPCGFLCVDRSW | 0.414 ± 0.53 |

| Substance | amyloid nucleation score |
| --- | --- |
| TVWYCALSL | 10.61 ± 0.07 |
| TWGPWTLMSVLSCGVYGSHG | 4.3 ± 0.084 |
| TWGQVII | -0.465 ± 1 |
| TWGVLFAYSIEDCVGINYLG | 0.73 ± 0.18 |
| TWKVDF | inactive |
| TWMGVHVRSYHQHC | 0.878 ± 0.42 |
| TWVGWS | -0.841 ± 0.79 |
| TYCKFVNFYESVKER | 6.753 ± 0.037 |
| TYDWEFFNDYYQM | 0.161 ± 0.77 |
| TYFVVGDSLSVIFSGRNWGV | 5.408 ± 0.043 |
| TYGHDKLRVSNIEHQLPGRA | 0.306 ± 0.64 |
| TYGLVTRTGAV | 0.247 ± 0.43 |
| TYICT | -0.59 ± 0.24 |
| TYLKHVRKS | 1.11 ± 0.24 |
| TYSGEIKL | inactive |
| TYVHDPGFPLWLDMAKRFGL | 0.581 ± 0.5 |
| TYVHNKVCKNACNFSTLGPC | 0.143 ± 0.8 |
| TYVLSGEGEIKA | 1.54 ± 0.33 |
| TYVYNGAYVVGNWL | -0.964 ± 0.54 |
| VAFNGYLY | -0.89 ± 0.48 |
| VAGDLGGRSELLARIRSGHA | inactive |
| VANEDDRYYTYGADWERLLL | 0.844 ± 0.56 |
| VARVWEWFCVCWTWDSELVG | 3.69 ± 0.057 |
| VATWGDQVLRMRWAALRLCV | 5.96 ± 0.079 |
| VAVISDWGWQNWMSVVGVGH | inactive |

| Substance | amyloid nucleation score |
| --- | --- |
| VAWITLMIPHIYFQSGILWD | -1 ± 0.25 |
| VAYLTFLWNQYAVRARKRLP | -0.085 ± 0.35 |
| VCCAFLCASRAVVYTGKDMH | 10.18 ± 0.027 |
| VCCRDKMSHCRSAALNMVLL | 3.49 ± 0.12 |
| VCDVDTNVVTSNWTSCLFRK | inactive |
| VCFGEQT | 0 ± 0.21 |
| VCFRYGEYLNVKIF | -0.789 ± 0.63 |
| VCFVM | -0.016 ± 0.79 |
| VCRDYGVMSMRRDWLCRMSL | 0.391 ± 0.65 |
| VCRNDRLVWCKLGVEFSGVA | 1.31 ± 0.26 |
| VCSMEGYEAVYSRRRELLWS | 0.08 ± 0.36 |
| VCVFTDLGCRY | -0.493 ± 1.1 |
| VCVQDRLRC | 0.518 ± 0.5 |
| VCYNT | 0.833 ± 0.74 |
| VDCGFRRLFVFTNSIYCVCR | 5.321 ± 0.053 |
| VDDWSADIMKGDRVLYS | inactive |
| VDFFCQPGTCVQEVEDLLVL | -0.166 ± 0.35 |
| VDFTCLYSVNFRIHVYISDM | 2.71 ± 0.2 |
| VDISNFTVCRHAIKDLTFRV | 0.149 ± 0.41 |
| VDREKKEKTLVDGTQMVTCL | 1.12 ± 0.32 |
| VDTELKVNSYRPGWTEHSRT | 0.738 ± 0.21 |
| VDVHIIIMKPDSWVCPNRCS | inactive |
| VEADVYDRDVTSWRMLYLYK | 0.174 ± 0.4 |
| VEALSISMQLYYRSLVAG | -0.066 ± 1 |
| VEGLNCVLSDNKVANGS | -0.791 ± 0.44 |

| Substance | amyloid nucleation score |
| --- | --- |
| VEGLQ | inactive |
| VESLFGYW | -0.889 ± 1.1 |
| VESMILSRYLHHILRGNSLC | -1.15 ± 1.1 |
| VFACLNVLSLMNEDFFVMSD | -0.708 ± 0.54 |
| VFDEVVVDTLKWWSCVSAGI | -0.484 ± 0.54 |
| VFFGLWRIVRGETSHFYRDE | -0.835 ± 0.27 |
| VFFNLDSWSSKVCDSKLMVM | -0.373 ± 0.54 |
| VFIMGPTS | 3.96 ± 0.092 |
| VFLSRVFNSF | -0.317 ± 0.79 |
| VFNILFSM | 9.098 ± 0.06 |
| VFNLL | inactive |
| VFPMVFTKGNANVCHI | 0.886 ± 0.58 |
| VFRFNFLRGLKIQVLSRFGW | -0.067 ± 1.1 |
| VFVSCYYAYLLRDTTNFYVG | inactive |
| VFVSWILFTVSPFIIRYRVN | -1.72 ± 0.75 |
| VFWGM | -1.35 ± 0.49 |
| VFWLNGWYCYI | 3.65 ± 0.056 |
| VFYTFMTSALGIRVTRSSCL | 1.12 ± 0.22 |
| VFYVCFKLQIIDGMLNWCKG | 7.237 ± 0.032 |
| VGDVKVWTVRSSTNATEKFL | 0.551 ± 0.27 |
| VGEYLCEPATLY | -0.018 ± 1.1 |
| VGFGVFVV | 0.213 ± 0.24 |
| VGFHEDNMEVR | inactive |
| VGHQVDCHTSVRYYILYAFF | 7.839 ± 0.063 |
| VGICFDNRMVTWHLSDRQSP | 3.58 ± 0.072 |

| Substance | amyloid nucleation score |
| --- | --- |
| VGKRNLISMVGYPYD | -1.09 ± 0.39 |
| VGLFNVTLAFVLYGSSRLVL | 4.12 ± 0.057 |
| VGNLRGYVKLVISFSVLRHK | inactive |
| VGPMEGGYPGVAQLLGEKRN | 2.3 ± 0.2 |
| VGSGRLTWT | 0.917 ± 0.28 |
| VGSSEAFCYGLTDFKRENLA | inactive |
| VGTSWLFLMV | inactive |
| VGTTNQYDEPTTGLSHC | 0.953 ± 0.32 |
| VGWKTGDRPSEMSSSWDLNG | -0.093 ± 0.37 |
| VGYFLSPMTVQLN | inactive |
| VGYIMYIYDGYRVVFVGYYR | 0.217 ± 0.65 |
| VHCSVGNINKDVSCTVVRP | 0.892 ± 0.47 |
| VHICRTNDG | 0.632 ± 0.44 |
| VHIMEDVMRRFCDRCTCRTW | 0.562 ± 0.44 |
| VHIYQTPPLKCIWSMDKTPA | -0.442 ± 1 |
| VHLNTFATFMGWLTDSWLGV | inactive |
| VHLTGSCHPNYSGVGKCMVI | 0.168 ± 0.49 |
| VHPGMNLDMSNACSAFVRTW | -0.631 ± 1 |
| VHQYDSVSAVHADCMG | -1.27 ± 0.53 |
| VHRLRMGRVWFDKDSDVVGK | 0.148 ± 1 |
| VHRWSDTYTTTYM | -0.535 ± 0.33 |
| VHSNCSLNGPCMPMCVRRRW | 0.302 ± 0.56 |
| VHTARLTWDLGYSVRCYYWT | 6.47 ± 0.074 |
| VICVLSYADCSKLGWGHSLT | 8.868 ± 0.043 |
| VIGRCDSL | inactive |

| Substance | amyloid nucleation score |
| --- | --- |
| VIIFFFVFRCMPDLIQVYCV | -1.72 ± 1 |
| VILYGFNKVMECSTYVVV | -0.804 ± 1.1 |
| VIMGFFGITFGWCKRSEVHE | 2.49 ± 0.11 |
| VINRMCIVWPYMSSYWEWNV | 9.126 ± 0.06 |
| VIPKHESISILFPAVYPPFE | 0.031 ± 0.23 |
| VIPSSILLEGYVLLYACYLP | -0.217 ± 0.44 |
| VIRYINSEDFRTGREFTRGV | -1.68 ± 0.78 |
| VISSLSISCYDHSVYVKAVK | 0.445 ± 0.33 |
| VISSRGALCRRAKQ | 0.409 ± 0.53 |
| VIVWFWRFQNMNVAREFMAE | -0.297 ± 0.37 |
| VKAWYWLKARFVLWTVGARL | -0.093 ± 0.79 |
| VKFNDFTHKNWY | 0.058 ± 0.74 |
| VKGHKRESSWNWRSDGNMWA | -0.111 ± 0.61 |
| VKHIGGISARVYKNCAASAV | -0.74 ± 0.63 |
| VKIWDHKCSLRGYWVKWMIG | 1.45 ± 0.3 |
| VKLEMD | -0.617 ± 0.21 |
| VKLHSVSYLIFLL | 4.8 ± 0.11 |
| VKMLSLKSIHLSYFCECASW | 0.28 ± 0.21 |
| VKNWVISCGGILNDARRLFD | -0.78 ± 1.1 |
| VKQYYGSESNNGITFILRIA | 0.177 ± 0.38 |
| VKSLLRDLCGPGCMLYMIVH | -0.11 ± 0.53 |
| VKTRTFRTCRSHRIEFMDWV | -0.064 ± 1.1 |
| VKTRVQPRTGDLSATLLGLE | 0.828 ± 0.48 |
| VKVGEISCFNFKEYTFLLTD | inactive |
| VKYVIIEHFNWSVSCCAYLR | 1.37 ± 0.23 |

| Substance | amyloid nucleation score |
| --- | --- |
| VLCEQHGTGKHSISAEKGHR | 1.44 ± 0.41 |
| VLFSRTTSEEDKRSIISMNN | 2.17 ± 0.18 |
| VLGGLCSVFGDDGTAYYSSS | 0.417 ± 0.36 |
| VLGVLR | inactive |
| VLIFRAMIFDDKALVGMKD | -0.521 ± 0.45 |
| VLILNQE | inactive |
| VLMDASTSVYTRSLMWKYMR | -0.162 ± 0.76 |
| VLNIFVT | 7.248 ± 0.061 |
| VLPLFNGIARHPCWNLCMPM | -1.27 ± 0.62 |
| VLPLGHWMAFMTREVCGADM | 0.514 ± 0.17 |
| VLRHLD | 0.44 ± 0.54 |
| VLRMRGCW | 6.738 ± 0.049 |
| VLRTPIIHTMGTGQV | 0.297 ± 0.56 |
| VLSMVVDKCLCTMCIQAIVL | 9.711 ± 0.058 |
| VLSTWWVSYAGTVFVRSEGT | 3.58 ± 0.14 |
| VLVKSLMRENVPCPPLGTLS | 0.942 ± 0.36 |
| VLVMLGGNSARVSCNWVM | 7.457 ± 0.031 |
| VLWLADLSR | 0.113 ± 0.8 |
| VLYVGWFRAKDNIVFLTYGC | -0.158 ± 0.61 |
| VMARYMFVK | 0.064 ± 0.65 |
| VMCFVDRDRFCNLFKLCLEF | -1.45 ± 0.49 |
| VMFTGHCVTRNDRDRLVLTY | -0.522 ± 0.76 |
